Positions of bridges follow the written chain, without caps; N, C: chain ends. Non-standard residues stand in square brackets, D forms with d.
Assays:
[1] = target: T1, human MUC1 in human carcinoma cells (human, UniProt P15941 1097-1255); assay: cell-based or functional assay
T1 sequence: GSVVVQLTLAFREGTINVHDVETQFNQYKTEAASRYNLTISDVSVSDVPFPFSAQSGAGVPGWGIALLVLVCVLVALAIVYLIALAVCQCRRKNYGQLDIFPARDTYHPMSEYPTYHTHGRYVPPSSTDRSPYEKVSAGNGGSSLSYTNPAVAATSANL

[2] = target: dopamine D1 receptor (Homo sapiens (Human)) (UniProt P21728); assay: receptor binding screen, inhibition of radioligand binding
[3] = target: human MUC1 in human carcinoma cells (human) (UniProt P15941); assay: cell-based or functional assay

Sequence of dopamine D1 receptor (Homo sapiens (Human)) (P21728 whole entry, form in doubt): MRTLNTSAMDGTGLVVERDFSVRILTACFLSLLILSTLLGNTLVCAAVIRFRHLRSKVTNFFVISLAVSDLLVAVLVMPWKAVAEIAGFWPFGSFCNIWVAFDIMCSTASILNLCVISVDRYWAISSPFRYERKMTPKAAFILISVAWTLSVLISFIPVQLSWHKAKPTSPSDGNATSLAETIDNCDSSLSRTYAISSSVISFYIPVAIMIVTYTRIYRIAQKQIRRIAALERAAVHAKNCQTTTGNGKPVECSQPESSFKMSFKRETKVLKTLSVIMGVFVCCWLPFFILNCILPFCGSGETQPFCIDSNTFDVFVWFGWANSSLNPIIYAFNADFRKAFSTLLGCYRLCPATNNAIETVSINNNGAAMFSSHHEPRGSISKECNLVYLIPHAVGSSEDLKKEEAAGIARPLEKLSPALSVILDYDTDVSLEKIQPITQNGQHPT

GO-203 (peptide)
% inhibition of proliferation, H1975 lung cancer cells, 5 µM peptide daily, viable cells by trypan blue [1]: 75.8%
% inhibition of proliferation, ZR-75-1 breast cancer cells, 5 µM peptide daily, viable cells by trypan blue [1]: 44%

B1: GO-203-2c (peptide)
peptide: Ac-[dR][dR][dR][dR][dR][dR][dR][dR][dR][dC][dQ][dC][dR][dR][dK][dN]-NH2
modifications: disulfide 10-12
SMILES: CC(=O)N[C@H](CCCNC(=N)N)C(=O)N[C@H](CCCNC(=N)N)C(=O)N[C@H](CCCNC(=N)N)C(=O)N[C@H](CCCNC(=N)N)C(=O)N[C@H](CCCNC(=N)N)C(=O)N[C@H](CCCNC(=N)N)C(=O)N[C@H](CCCNC(=N)N)C(=O)N[C@H](CCCNC(=N)N)C(=O)N[C@H](CCCNC(=N)N)C(=O)N[C@@H]1CSSC[C@H](C(=O)N[C@H](CCCNC(=N)N)C(=O)N[C@H](CCCNC(=N)N)C(=O)N[C@H](CCCCN)C(=O)N[C@H](CC(N)=O)C(N)=O)NC(=O)[C@@H](CCC(N)=O)NC1=O
IC50 [2]: 10.5 µM
IC50 of inhibition of proliferation of a variety of human carcinoma cell lines in vitro [1]: 2 to 5 µM

B2: GO-203-2 (peptide)
peptide: Ac-[dR][dR][dR][dR][dR][dR][dR][dR][dR][dC][dQ][dC][dR][dR][dK][dN]-NH2
modifications: cysteine pairing not given here
% Inhibition of cell viability, A549 NSCLC, 5 µM [3]: 75.4%
% Inhibition of cell viability, H1975 NSCLC, 5 µM [3]: 52.9%
% Inhibition of cell viability, MCF-7 breast carcinoma, 5 µM [3]: 91.4%
% Inhibition of cell viability, ZR-75-1 breast carcinoma, 5 µM [3]: 50.7%
% inhibition of proliferation, H1975 lung cancer cells, 5 µM peptide daily, viable cells by trypan blue [3]: 63.6%
% inhibition of proliferation, ZR-75-1 breast cancer cells, 5 µM peptide daily, viable cells by trypan blue [3]: 65.5%
IC50 of inhibition of proliferation of a variety of human carcinoma cell lines in vitro [3]: 2 to 5 µM

Reference: patent publication US20140322332A1 (GENUS ONCOLOGY, published 2014)
